One experiment concerns the target T1, APC1015-AA.
T1 chain: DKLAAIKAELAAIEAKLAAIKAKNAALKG
Briefly: two-hybrid library CCmax.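 Also: natural log of median RNA to DNA barcode read ratio; higher means stronger binding.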

For the next experiment, the target named is T2, APC1434-AA.
T2 chain: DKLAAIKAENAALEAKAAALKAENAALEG
As to the kind of experiment: two-hybrid library CCmax.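 Also: natural log of median RNA to DNA barcode read ratio; higher means stronger binding.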 The conditions noted are these: mean of both orientations.

The next experiment has as its target T3, APC2237-AA.
T3 chain: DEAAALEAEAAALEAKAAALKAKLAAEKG
As to the kind of experiment: two-hybrid library CCmax.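 Also: natural log of median RNA to DNA barcode read ratio; higher means stronger binding.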 The conditions noted are these: mean of both orientations.

A further experiment has as its target T4, APC232-AA.
T4 chain: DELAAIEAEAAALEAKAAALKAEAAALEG
As to the kind of experiment: two-hybrid library CCmax.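 Also: natural log of median RNA to DNA barcode read ratio; higher means stronger binding.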 The conditions noted are these: mean of both orientations.

For the next experiment, the target named is T5, APC2405-AA.
T5 chain: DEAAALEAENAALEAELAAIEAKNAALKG
Briefly: two-hybrid library CCmax.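 Also: natural log of median RNA to DNA barcode read ratio; higher means stronger binding.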 As to conditions: mean of both orientations.

The next experiment addresses T6, APC3645-AA.
T6 chain: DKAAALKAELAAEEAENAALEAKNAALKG
As to the kind of experiment: two-hybrid library CCmax.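 Also: natural log of median RNA to DNA barcode read ratio; higher means stronger binding.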 As to conditions: mean of both orientations.

The next experiment addresses T7, APC4011-AA.
T7 chain: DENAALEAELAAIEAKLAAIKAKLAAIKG
As to the kind of experiment: two-hybrid library CCmax. The conditions noted are these: mean of both orientations.

In another experiment the target is T8, APC4264-AA.
T8 chain: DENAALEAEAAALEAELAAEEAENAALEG
As to the kind of experiment: two-hybrid library CCmax.

A further experiment addresses T9, APC4436-AA.
T9 chain: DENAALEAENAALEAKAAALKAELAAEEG
As to the kind of experiment: two-hybrid library CCmax. The conditions noted are these: mean of both orientations.

The target in the next experiment is T10, APC5383-AA.
T10 chain: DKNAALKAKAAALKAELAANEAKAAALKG
Briefly: two-hybrid library CCmax. As to conditions: mean of both orientations.

A further experiment has as its target T11, APC6108-AA.
T11 chain: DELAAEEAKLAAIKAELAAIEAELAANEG
Briefly: two-hybrid library CCmax. The conditions noted are these: mean of both orientations.

In the next experiment the target is T12, APC7099-AA.
T12 chain: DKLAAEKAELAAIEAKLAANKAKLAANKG
As to the kind of experiment: two-hybrid library CCmax. As to conditions: mean of both orientations.

Another experiment concerns the target T13, APC8191-AA.
T13 chain: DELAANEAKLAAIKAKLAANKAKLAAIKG
Briefly: two-hybrid library CCmax. The conditions noted are these: mean of both orientations.

Another experiment deals with T14, APC8910-AA.
T14 chain: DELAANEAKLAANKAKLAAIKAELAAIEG
As to the kind of experiment: two-hybrid library CCmax. The conditions noted are these: mean of both orientations.

Another experiment concerns the target T15, APC9096-AA.
T15 chain: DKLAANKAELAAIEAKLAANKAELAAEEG
Briefly: two-hybrid library CCmax. The conditions noted are these: mean of both orientations.

The target in a further experiment is T16, APC9319-AA.
T16 chain: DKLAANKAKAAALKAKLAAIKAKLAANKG
As to the kind of experiment: two-hybrid library CCmax. The conditions noted are these: mean of both orientations.

A further experiment has as its target T17, 4H3340-AA.
T17 chain: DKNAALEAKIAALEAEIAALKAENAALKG
Briefly: two-hybrid library CCmax.

A further experiment addresses T18, 4H3381-AA.
T18 chain: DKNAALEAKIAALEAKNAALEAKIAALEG
As to the kind of experiment: two-hybrid library CCmax. As to conditions: mean of both orientations.

The next experiment has as its target T19, 4H347-AA.
T19 chain: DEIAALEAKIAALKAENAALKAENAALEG
Briefly: two-hybrid library CCmax. The conditions noted are these: mean of both orientations.

The next experiment concerns the target T20, 4H3493-AA.
T20 chain: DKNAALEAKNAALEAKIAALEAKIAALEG
As to the kind of experiment: two-hybrid library CCmax. As to conditions: mean of both orientations.

The next experiment concerns the target T21, 4H376-AA.
T21 chain: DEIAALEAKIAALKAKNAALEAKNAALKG
As to the kind of experiment: two-hybrid library CCmax. The conditions noted are these: mean of both orientations.

The next experiment has as its target T22, 4H406-AA.
T22 chain: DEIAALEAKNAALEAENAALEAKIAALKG
Briefly: two-hybrid library CCmax. As to conditions: mean of both orientations.

A further experiment concerns the target T23, 4H688-AA.
T23 chain: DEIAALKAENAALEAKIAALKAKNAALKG
As to the kind of experiment: two-hybrid library CCmax.

A further experiment deals with T24, 4H963-AA.
T24 chain: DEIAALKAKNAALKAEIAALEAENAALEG
Briefly: two-hybrid library CCmax. The conditions noted are these: mean of both orientations.

In the next experiment the target is T25, 4H3001-AA.
T25 chain: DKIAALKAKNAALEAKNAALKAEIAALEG
As to the kind of experiment: two-hybrid library CCmax.

Another experiment has as its target T26, 4H3015-AA.
T26 chain: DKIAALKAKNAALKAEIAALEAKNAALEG
Briefly: two-hybrid library CCmax. As to conditions: mean of both orientations.

The next experiment concerns the target T27, 4H3073-AA.
T27 chain: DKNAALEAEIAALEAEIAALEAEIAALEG
As to the kind of experiment: two-hybrid library CCmax. The conditions noted are these: mean of both orientations.

Another experiment concerns the target T28, 4H3438-AA.
T28 chain: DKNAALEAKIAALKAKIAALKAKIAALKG
Briefly: two-hybrid library CCmax. As to conditions: mean of both orientations.

The next experiment concerns the target T29, 4H452-AA.
T29 chain: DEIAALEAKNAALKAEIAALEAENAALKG
Briefly: two-hybrid library CCmax. The conditions noted are these: mean of both orientations.

The target of another experiment is T30, 4H56-AA.
T30 chain: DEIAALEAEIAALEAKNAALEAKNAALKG
Briefly: two-hybrid library CCmax. As to conditions: mean of both orientations.

In a further experiment the target is T31, 4H_APH.
T31 chain: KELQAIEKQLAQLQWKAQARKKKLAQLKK
As to the kind of experiment: two-hybrid library CCmax.

For the next experiment, the target named is T32, 4H_BCR.
T32 chain: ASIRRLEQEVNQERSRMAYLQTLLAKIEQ
As to the kind of experiment: two-hybrid library CCmax. The conditions noted are these: mean of both orientations.

The target of the next experiment is 4H_GCN4. Briefly: two-hybrid library CCmax. As to conditions: mean of both orientations.
In a further experiment the target is GCN2_T. As to the kind of experiment: two-hybrid library CCmax.
For a further experiment, the target named is T33, P8A-bA.
T33 chain: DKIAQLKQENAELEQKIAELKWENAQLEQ
Briefly: two-hybrid library CCNG1.

Another experiment addresses T34, P9A-bA.
T34 chain: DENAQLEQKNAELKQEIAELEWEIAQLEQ
Briefly: two-hybrid library CCNG1.

A further experiment deals with T35, P8A-bH.
T35 chain: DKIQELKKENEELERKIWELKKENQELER
As to the kind of experiment: two-hybrid library CCNG1.

A further experiment addresses T36, P9A-bH.
T36 chain: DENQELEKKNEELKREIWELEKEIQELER
Briefly: two-hybrid library CCNG1.

Like-named read-outs stand apart in the source and are kept apart here.

4H_GCN4, sequence (chain, as listed by the source): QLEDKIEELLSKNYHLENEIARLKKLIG

Regarding DKLAAIKAELAAIEAKLAAIKAKNAALKG [APC1015-AA], the interaction score was -0.544 with APC1015-AA; -1.58 with APC1434-AA; -0.0287 with APC2237-AA; 0.0398 with APC232-AA; -1.26 with APC2405-AA; -1.79 in the experiment with APC3645-AA. In addition, the interaction score with APC4011-AA is 1.66; with APC4264-AA (mean of both orientations) it was -1.82; with APC4436-AA, -1.14; with APC5383-AA, -1.69; with APC6108-AA it was 0.792; with APC7099-AA, -2.02. The interaction score in the experiment with APC8191-AA was -1.8; with APC8910-AA, -1.34; in the experiment with APC9096-AA, -1.67; with APC9319-AA, -1.82.
Consider DKNAALEAKIAALEAEIAALKAENAALKG [4H3340-AA], for which the interaction score with 4H3340-AA was 1.7; with 4H3381-AA it was -1.57; with 4H347-AA, -0.858; with 4H3493-AA, -1.48; with 4H376-AA, -1.48; in the experiment with 4H406-AA, -1.43. For the same molecule, the interaction score in the experiment with 4H688-AA was -1.69; in the experiment with 4H963-AA it was -2.28.
In the case of DKIAALKAKNAALEAKNAALKAEIAALEG [4H3001-AA], the interaction score was -1.82 with 4H3001-AA; -1.86 with 4H3015-AA; -0.938 in the experiment with 4H3073-AA; -1.44 with 4H3340-AA (mean of both orientations); -1.43 with 4H3381-AA; -1.83 with 4H3438-AA. The interaction score was -2.08 with 4H347-AA; -1.38 with 4H3493-AA; -1.69 with 4H376-AA; 2.27 with 4H406-AA; -1.76 with 4H452-AA; -1.87 with 4H56-AA. Further, the interaction score is -1.46 with 4H688-AA (mean of both orientations); -1.94 with 4H963-AA; -2 in the experiment with 4H_APH; -2.15 with 4H_BCR; -2.43 with 4H_GCN4; -1.9 with GCN2_T.
In the case of DKIAQLKQENAELEQKIAELKWENAQLEQ [P8A-bA], the interaction score is -0.497 with P8A-bA and -0.256 with P9A-bA.
Regarding DEIAALKAKIAALEAKIAALEAKNAALEG [4H807-AA], the interaction score with APC1015-AA (mean of both orientations) was -0.714; with APC1434-AA, -1.82; with APC2237-AA, -1.21; in the experiment with APC232-AA, -1.73; with APC2405-AA, -1.49; with APC3645-AA it was -1.3. Besides, the interaction score with APC4011-AA was 1.45; in the experiment with APC4264-AA, -1.72; in the experiment with APC4436-AA, -1.65; with APC5383-AA, -1.89; with APC6108-AA, -1.43; with APC7099-AA, -1.32. The interaction score is -2.1 with APC8191-AA, -1.59 with APC8910-AA, -1.75 with APC9096-AA and -1.71 in the experiment with APC9319-AA.
As to DKIQELKKENEELERKIWELKKENQELER [P8A-bH], the interaction score in the experiment with P8A-bH was 0.54; in the experiment with P9A-bH, -0.34.

The record behind these values is publication PMC10397247.
